Assay results from PMC7746637 (Nature chemical biology, 2020).
Like-named read-outs stand apart in the source and are kept apart here. Each block holds one molecule with its values, some of them ahead of it.

Experiments:
Assay in all cases: native MS
[1] = target: K2P4.1a (TRAAK, shorter isoform, truncated, residues 1-264), tags removed (human)
native MS [2] = target: the molecule itself
native MS [3] = target: the molecule itself; remark: listed apart in the source

stoichiometry N [1]: 2
Molecule: K2P4.1a (TRAAK, shorter isoform, truncated, residues 1-264), tags removed (domain or fragment)

B1: K2P4.1b (residues 1-290) as a C-terminal fusion to mCherry, Strep-tag II and His6 (pPIC-K2P4.1b-mC-S-H) (domain or fragment, human, UniProt Q9NYG8-2 1-290, looked up)
chain: MTTAPQEPPARPLQAGSGAGPAPGRAMRSTTLLALLALVLLYLVSGALVFRALEQPHEQQAQRELGEVREKFLRAHPCVSDQELGLLIKEVADALGGGADPETQSTSQSSHSAWDLGSAFFFSGTIITTIGYGNVALRTDAGRLFCIFYALVGIPLFGILLAGVGDRLGSSLRHGIGHIEAIFLKWHVPPELVRVLSAMLFLLIGCLLFVLTPTFVFCYMEDWSKLEAIYFVIVTLTTVGFGDYVAGADPRQDSPAYQPLVWFWILLGLAYFASVLTTIGNWLRVVSRRT
stoichiometry N (native MS [2]): 2

B2: K2P4.1b (TRAAK, longer isoform, truncated, residues 1-290), expressed with tags at both termini, tags removed (domain or fragment, human, UniProt Q9NYG8-2 1-290, looked up)
chain: B1 chain
stoichiometry N (native MS [3]): 2
